Experimental findings from patent US7888090B2, “Mutants of O6-alkylguanine-DNA alkyltransferase” (Ecole Polytechnique Federale de Lausanne, priority 2004, dated 2011) are described below.

A short description of data set [1]: Solubility in vitro after overnight incubation. Format: physicochemical. The note with it: compared to wild type AGT. Here is the method:
The in vitro solubility of wild type AGT and the AGT mutant is measured by determining the amount of protein that remains in the soluble fraction after overnight incubation of purified samples at 4° C. or up to 37° C. at one or several concentrations established in a suitable buffer (e.g. 100 mM NaCl, 20 mM Tris, pH 8.0, 20% glycerol, 1 mM DTT).
The solubility of AGTM or an AGTM fusion protein in vitro is measured by determining the amount of protein that remains in the soluble fraction after overnight incubation of purified samples at 4 or up to 37° C. at one or several concentrations established in a suitable buffer (e.g. 100 mM NaCl, 20 mM Tris, pH 8.0, 20% Glycerol), and it is compared to that of wild type AGT or to known AGT mutants such as “PGEG-hAGT” (Juillerat et al., Chem Biol 10:313-317, 2003).

Data set [2] is described as follows: Activity assay with biotinylated O^6-benzylguanine (BG-Bt), Western blotting. Format: biochemical. The note with it: statement in words. An outline of the steps:
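Purified mutant GST-AGT (0.2 μM) reacted with 1 μM biotinylated O^6-benzylguanine in 50 mM HEPES pH 7.2, 1 mM DTT at room temperature. Time-point aliquots quenched with O^6-benzylguanine in SDS buffer. Biotinylated protein detected by Western blot with neutravidin-peroxidase, band intensity quantified.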

Data set [3] concerns oligonucleotide SEQ ID NO:2 (modified in position 14). Kind of data set: Reactivity against DNA-based substrates (BG-Cy3 assay with BG-modified oligonucleotide). The class given is biochemical. Here is the method:
The ability of wild type AGT or mutant AGT to react with alkylated DNA substrates is measured as the reaction of its inactivation by a synthetic oligonucleotide containing O^6-benzylguanine (SEQ ID NO:2, modified in position 14). Subsequently, the reactions are quenched by incubation with biotinylated O^6-alkylguanine. Samples are subjected to Western blotting and detection with streptavidin derivates to obtain kinetic constants for these substrates. Alternatively, the ability of wild type or mutant AGT to react with alkylated DNA substrates is measured via its labeling efficiency in competition with a fluorescent substrate of AGT. The reaction kinetics of AGT with BG-Cy3 (O^6-benzylguanine coupled to Cy3) is followed by fluorescence intensity measurements at various concentrations of a competing synthetic oligonucleotide containing O^6-benzylguanine (SEQ ID NO:2, modified in position 14).
Reactivity against DNA-based substrates measured with a BG-Cy3 assay: BG-Cy3 is prepared by reacting the previously described O^6-(4-aminomethyl-benzyl)guanine (Keppler et al., NatureBiotechnol. 21:86-89, 2003) with the commercially available N-hydroxysuccinimide ester of Cy3, (Cy3-NHS, Amersham). The coupling reaction is performed at ambient temperature in N,N-dimethylformamide in the presence of 1 eq. of triethylamine. The BG-Cy3 conjugate is purified by reversed-phase HPLC on a C18-column by using linear gradients from 0.1% trifluoroacetic acid to acetonitrile. After solvent evaporation BG-Cy3 is dissolved in dimethyl sulfoxide and stored at −20° C. For measuring the reactivity with DNA-based substrates, a reaction mixture containing different concentrations (0 to 5 µM) of oligonucleotide SEQ ID NO:2 (modified in position 14), GST-AGT fusion protein at 0.2 µM and BG-Cy3 at […] in reaction buffer (50 mM HEPES, pH 7.2, 1 mM DTT, 200 mg/ml BSA) is incubated in microtiterplates. Fluorescence of the Cy3 derivative (excitation 519 nm, emission at 572 nm) is measured on a Spectramax Gemini plate reader (Molecular Devices).

Data set [4] is described as follows: Competition of N^9-substituted and N^9-unsubstituted O^6-benzylguanine substrates. Format: biochemical. The protocol:
Such N^9-substituted O^6-alkylguanine substrates are the natural substrates of the wild type AGT. The ability of wild type AGT or mutant AGT to react with N^9-modified O^6-alkylguanine substrates is measured as the rate of its reaction with such substrates, e.g. with the low molecular weight N^9-cyclopentyl-O^6-benzylguanine in presence of biotinylated N^9-unsubstituted O^6-alkylguanine substrates in competition experiments. Subsequently, samples are subjected to Western blotting and detection with streptavidin derivates to obtain kinetic constants for these substrates. Alternatively, the reactivity towards such substrates is measured as the inhibition of the reaction of AGT with BG-Cy3. The reaction of AGT with BG-Cy3 is followed by an increase of Cy3 fluorescence intensity upon binding to AGT, after preincubation or in direct competition with the N^9-modified O^6-alkylguanine substrate.
Selected AGT mutants are subcloned into pGEX2T, expressed, purified and characterized as described in Example 1. Discrimination between N^9 substituted and N^9 unsubstituted O^6-benzylguanine substrates is evaluated by competition experiments for purified mutated GST-AGT in vitro with N^9-substituted and N′-unsubstituted O^6-benzylguanine. Aliquots of 0.2 μM GST-AGT are incubated with varying concentrations of N^9 substituted substrate (0, 0.5, up to 100 µM) and 0.5 µM biotinylated O^6-benzylguanine (BG-Bt, substance 3a of Juillerat et al., Chem Biol 10:313-317, 2003) in 50 mM HEPES pH 7.3 and 1 mM DTT at room temperature. After 45 min reactions are quenched by the addition of SDS-Laemmli buffer and heat denaturation. Samples are subjected to SDS-PAGE and Western blotting analysis (neutravidin-peroxidase conjugate (PIERCE), Renaissance reagent plus (NEN)). The intensity of the corresponding bands is quantified by a Kodak Image Station 440.

B1: AGTM: AGT mutant Cys62Ala, Gln115Ser, Gln116His, Lys125Ala, Ala127Thr, Arg128Ala, Gly131Lys, Gly132Thr, Met134Leu, Arg135Ser, Cys150Asn, Ser151Ile, Ser152Asn, Asn157Gly, Ser159Glu, truncated after … (protein, UniProt P16455 1-207, looked up, variant C62A Q115S Q116H K125A A127T R128A G131K G132T M134L R135S C150N S151I S152N N157G S159E del183-207)
Methylated-DNA--protein-cystei …: MDKDCEMKRTTLDSPLGKLELSGCEQGLHEIKLLGKGTSAADAVEVPAPAAVLGGPEPLMQATAWLNAYFHQPEAIEEFPVPALHHPVFQQESFTRQVLWKLLKVVKFGEVISYSHLAALAGNPAATAAVKTALSGNPVPILIPCHRVVNINGAVGGYEGGLAVKEWLLAHEGHRLGKPGLG
modifications: His tag
As to B1, the solubility in vitro result in data set [1] is “at least fourfold increased”. The “activity towards O^6-benzylguanine substrates” value in data set [2] is recorded as “retains the reactivity”; in data set [2] (Gln115Ser, Gln116His, Lys125Ala, Ala127Thr, Arg128Ala, Gly131Lys, Gly1) it was “increased reactivity”. Further, in data set [3], the “reduced reactivity with DNA substrates (factor)” value is at least 100. The “reaction with BG-Cy3 in presence of BG-modified oligonucleotide” value in data set [3] (up to 5 µM BG-modified oligonucleotide) is “no reduction”. In addition, in data set [4], the “reduced reactivity with N^9-substituted O^6-alkylguanine derivatives (factor)” value is at least 10. Besides, the “reduced reactivity towards O^6-alkyl-N^9-deoxyribosylguanine or N^9-cyclopentyl-O^6-benzylguanine” value in data set [4] (comparator not stated) is “at least 100 fold”.
